We go through one molecule from patent publication US20210369842A1 (Genmab, published 2021).

Assay [1] deals with T1, African elephant (Loxodonta africana) CD137 (African elephant (Loxodonta africana)).
T1 construct: Expressed on transfected HEK293T-17 cells; Amino acids 1-23 are stated as the predicted signal peptide; also called elephant CD137
T1 chain: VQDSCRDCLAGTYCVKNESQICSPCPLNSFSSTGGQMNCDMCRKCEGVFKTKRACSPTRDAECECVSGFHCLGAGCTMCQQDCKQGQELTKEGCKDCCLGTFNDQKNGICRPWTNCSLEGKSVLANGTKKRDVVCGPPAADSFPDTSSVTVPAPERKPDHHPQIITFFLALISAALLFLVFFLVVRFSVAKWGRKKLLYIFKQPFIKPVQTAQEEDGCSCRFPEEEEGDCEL
In words: flow cytometry on transfected HEK293T-17 cells. The method, then: (§1) 3×10⁶ HEK293T-17 cells were seeded in T75 culture flasks (Greiner Bio-One, cat. no. 658175) in 20 mL RPMI 1640 GlutaMAX medium containing 10% FCS (Biochrom, cat. no. S 0115). After O/N incubation, cells were transiently […] with expression vectors encoding the shuffle constructs or the wild boar, African elephant or human CD137 downstream of a constitutively active human elongation factor-1 alpha (EF-1 alpha) promotor using TransIT®-LT1 Transfection Reagent, Mirus Bio (VWR International, cat. no. 731-0029), according to the manufacturer's instructions. The next day, cells were harvested using 1.5 mL Accutase (Sigma Aldrich, cat. no. A6964) (incubation at 37° C. for 5 min.) and flow cytometry was performed, essentially as described supra, to measure surface expression of the shuffle constructs and the human, African elephant and wild boar CD137 and to measure binding of the antibody clones to the different shuffle constructs. […] Binding of the different CD137 antibody clones to cells expressing the shuffle constructs was measured by incubation of the transduced cells with 1 μg/mL of the antibody clones, followed by APC-labeled AffiniPure F(ab′)2 Fragment (1:50 final dilution; Jackson, cat. no. 109-136-127).
In general terms: Flow cytometry measures light scatter and fluorescence of single cells or particles in a stream.

Assay [2] has as its target T2, Wild boar (Sus scrofa) CD137 (wild boar (Sus scrofa)).
T2 construct: Expressed on transfected HEK293T-17 cells; Amino acids 1-23 are stated as the predicted signal peptide; also called wild boar CD137
T2 chain: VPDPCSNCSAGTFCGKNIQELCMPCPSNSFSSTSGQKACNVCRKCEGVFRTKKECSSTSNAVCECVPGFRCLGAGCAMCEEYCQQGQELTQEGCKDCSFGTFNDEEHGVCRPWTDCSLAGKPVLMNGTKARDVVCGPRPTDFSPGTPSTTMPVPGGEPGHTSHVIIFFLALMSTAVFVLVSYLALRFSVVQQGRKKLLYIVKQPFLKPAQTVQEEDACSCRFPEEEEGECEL
In words: flow cytometry on transfected HEK293T-17 cells. As for the experimental part: as §1

Assay [3] deals with T3, Human CD137 shuffle 5 (amino acids 48-88 of African elephant CD137) (human CD137 with an African elephant …, UniProt Q07011 24-255).
T3 construct: also called shuffle construct 5
T3 chain: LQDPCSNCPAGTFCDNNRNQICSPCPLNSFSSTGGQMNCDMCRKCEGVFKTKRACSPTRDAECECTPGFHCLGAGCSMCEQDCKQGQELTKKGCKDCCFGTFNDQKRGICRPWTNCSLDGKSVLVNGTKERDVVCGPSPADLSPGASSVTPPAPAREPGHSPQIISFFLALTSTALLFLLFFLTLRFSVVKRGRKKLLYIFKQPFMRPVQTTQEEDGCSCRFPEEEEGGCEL
In words: flow cytometry on transfected HEK293T-17 cells. As for the experimental part: as §1

The target in assay [4] is T4, Human CD137 (human, UniProt Q07011 24-255).
T4 construct: Amino acids 1-23 are stated as the predicted signal peptide; also called hCD137 wt; 4-1BB
In words: flow cytometry on HEK293T-17 cells transfected with human CD137, 1 µg/mL antibody. As for the experimental part: as §1

Assay [5] addresses T5, Shuffle 1.
T5 construct: Expressed on transiently transfected HEK293-T17 cells; also called Human CD137 shuffle 1 (amino acids 162-186 of wild boar CD137); shuffle construct 1
T5 receptor chain: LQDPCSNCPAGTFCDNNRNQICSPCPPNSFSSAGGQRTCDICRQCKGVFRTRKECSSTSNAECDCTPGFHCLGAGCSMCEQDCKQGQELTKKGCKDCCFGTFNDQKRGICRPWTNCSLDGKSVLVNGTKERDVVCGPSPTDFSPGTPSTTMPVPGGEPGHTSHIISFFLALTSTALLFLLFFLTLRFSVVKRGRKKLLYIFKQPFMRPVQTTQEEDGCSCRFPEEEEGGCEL
In words: flow cytometry on transfected HEK293-T17 cells, 1 µg/mL antibody, APC-labeled AffiniPure F(ab')2 fragment as secondary. The method, then: as §1

Assay [6] addresses T6, Shuffle 2.
T6 construct: Expressed on transiently transfected HEK293-T17 cells; also called Human CD137 shuffle 2 (amino acids 139-161 of wild boar CD137); shuffle construct 2
T6 receptor chain: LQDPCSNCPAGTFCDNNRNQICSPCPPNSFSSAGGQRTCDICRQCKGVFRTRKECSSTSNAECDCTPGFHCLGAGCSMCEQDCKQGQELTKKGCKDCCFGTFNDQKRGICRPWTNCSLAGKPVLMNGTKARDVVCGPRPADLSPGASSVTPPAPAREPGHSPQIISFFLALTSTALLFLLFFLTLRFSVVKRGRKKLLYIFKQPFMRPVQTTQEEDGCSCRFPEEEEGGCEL
The assay is described as above. As for the experimental part: as §1

The target of assay [7] is T7, Shuffle 3.
T7 construct: Expressed on transiently transfected HEK293-T17 cells; also called Human CD137 shuffle 3 (amino acids 115-138 of wild boar CD137); shuffle construct 3
T7 receptor chain: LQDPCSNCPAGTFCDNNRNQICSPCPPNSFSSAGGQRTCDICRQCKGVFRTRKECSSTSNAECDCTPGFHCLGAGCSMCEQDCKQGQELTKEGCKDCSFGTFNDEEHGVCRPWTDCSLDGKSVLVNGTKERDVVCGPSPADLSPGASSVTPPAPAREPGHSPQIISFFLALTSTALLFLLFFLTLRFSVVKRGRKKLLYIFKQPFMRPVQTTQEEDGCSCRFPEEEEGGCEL
The assay is described as above. The method, then:
as §1

For assay [8], the target named is T8, Shuffle 4.
T8 construct: Expressed on transiently transfected HEK293-T17 cells; also called Human CD137 shuffle 4 (amino acids 89-114 of wild boar CD137); shuffle construct 4
T8 receptor chain: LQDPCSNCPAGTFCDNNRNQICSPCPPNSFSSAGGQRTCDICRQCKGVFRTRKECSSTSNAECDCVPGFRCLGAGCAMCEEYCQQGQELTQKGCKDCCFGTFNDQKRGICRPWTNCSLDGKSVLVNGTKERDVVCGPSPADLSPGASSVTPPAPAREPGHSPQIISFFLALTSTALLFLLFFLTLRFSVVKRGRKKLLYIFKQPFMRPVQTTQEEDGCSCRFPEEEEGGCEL
The assay is described as above. The method, then:
as §1

B1: CD137-009 (chimeric rabbit/human CD137 antibody) (antibody, V domains shown)
VH: QSLEESGGRLVTPGTPLTLTCTVSGFSLNDYWMSWVRQAPGKGLEWIGYIDVGGSLYYASWAKGRFTISRTSTTVDLKMTSLTTEDTATYFCARGGLTYGFDLWGPGTLVTVSS
VL: DIVMTQTPASVSEPVGGTVTINCQASEDISSYLAWYQQKPGQRPKRLIYGASDLASGVPSRFSASGSGTEYALTISDLESADAATYYCHYYATISGLGVAFGGGTEVVVK
notes: also called antibody CD137-009; rabbit anti-CD137-009
For B1, the binding result in assay [1] was “no binding (tested: 1 µg/mL)”; in assay [2], “no binding (tested: 1 µg/mL)”; in assay [3] it was “no binding (tested: 1 µg/mL)”; in assay [4] it was “binds”; in assay [5], “binds”; in assay [6], “binds”. Further, the binding result in assay [7] and in assay [8] was “binds” in each case.
